Measured values: the DeepSol protein solubility set

Assay: soluble on expression in E. coli; label from the status in PepcDB or PDB records

| Sequence | soluble on expression in E. coli |
| --- | --- |
| VKNPSLICAPVMADSIDKMVIETSKAHELGADLVEIRLDWLKDFNPLEDLKTIIKKSPLPTLFTYRPKWEGGQYEGDENERRDVLRLAMELGADYIDVELQVASEFIKSIDGKKPGKFKVIVSSHNYQNTPSVEDLDGLVARIQQTGADIVKIATTAVDIADVARMFHITSKAQVPTIGLVMGERGLMSRILCSKFGGYLTFGTLDSSKVSAPGQPTIKDLLDLYNFRRIGPDTKVYGIIGKPVSHSKSPIVHNQAFKSVDFNGVYVHLLVDNLVSFLQAYSSSDFAGFSCTIPHKEAALQCCDEVDPLAKSIGAVNTILRRKSDGKLLGYNTDCIGSISAIEDGLRSSGDPSSVPSSSSPLASKTVVVIGAGGAGKALAYGAKEKGAKVVIANRTYERALELAEAIGGKALSLTDLDNYHPEDGMVLANTTSMGMQPNVEETPISKDALKHYALVFDAVYTPRITRLLREAEESGAITVSGSEMFVRQAYEQFEIFTGLPAPKELYWQIMSKYGSRENLYFQ | soluble |
| MGSDKIHHHHHHMARKISDYHLKKREETQKKFIDLLAQNNYIHISGDMVNSKTKVKVRCRHNHTWQVNYEHFKKGTRCPECRIIEGSLKKRLNISTVKSRYALKGYEILSTYKNCHSKLKAKCPEGHIWEHLPSNFFKGEECFQCKGAKKYTVECAQAAFSDRGFIPLFDTYHHNKENLPFLCKEHIDLGVQYAPLHNMVRGLANCRKCYLLLFTGENSSRWKGGISSLNKTLREAVYEVWTKPSLEKYSFKCAITNSTKDLHVHHYKKNFSEIVKEALSNLSFEL | not soluble |
| TKDFSWRTSLNFAYNKNKIVDLQYKENLTSRGLSLAGMSGDYSNLWIIGQPIDINYNLMTLGVWQLDEAEEAAKYGCKPGQYKPLDLNEDGVIDDKDRVIDGKRTPDWTGGMTNTFTYKEFDLSFQAAFQAGARARNQFYVSYALENNNLNFNNLRKDYWTPENPTNASAQPSNMGTYRSKAGSWGNAKSEMSHTMFSSNFLKISYITLGYTFKPSVLEKMKLGNLRLYATVQNPFIFCAKDVVDPEQLNVSINTSDAMTRNVIFGINLSFK | not soluble |
| MSLHGKLIQFHKFGNPKDVLQVEYKNIEPLKDNEVFVRMLVRPINPSDLIPITGAYAHRIPLPNIPGYEGVGIVENVGAFVSRELIGKRVLPLRGEGTWQEYVKTSADFVVPIPDSIDDFTAAQMYINPLTAWVTCTETLNLQRNDVLLVNACGSAIGHLFAQLSQILNFRLIAVTRNNKHTEELLRLGAAYVIDTSTAPLYETVMELTNGIGADAAIDSIGGPDGNELAFSLRPNGHFLTIGLLSGIQVNWAEIVTKAKVHANIFHLRHWNDEVSPYKWQETFRHLIRLVENEQLRFMKVHSTYELADVKAAVDVVQSAEKTKGKVFLTSYEGHHHHHH | soluble |
| MSLIKPDHPRLSILRQCALVSLSRSSFYYQEKGESPLNLKLMELIDRQFMETPFYGARQMARHLRNHEGYCVGRKKICRLMAKMGLVPIYQRPRTTKPHPEHVKYPYLLRDLVIDKPNQVWCTDITYIPMRRGFLYLVAIMDWHSRCVLSWRLSNTMEADFCVEALEEALNKFGKPEIFNTDQGSQFTSQSFTETLKEADIKISMDGKGAWTDNVFIERLWRSLKYECVYLHAFETGSKAHHGIGHWIQFYNERRPHSSLGGLSPNSVYETELWSEAAEGHHHHHH | not soluble |
| DTTKNIFIEGDNLDALKLLQENYLGKIKMVYIDPPYNTGNDFVYADDFVDEVSEFFLRSNQVDREGNRLTANPETSGRFHSDWLSMMYSRLKLSRNLLRDDGLIVIHIDENEYPNLEKLLAEIYGEKNNLGTIVWDKRNPKGDATGVAQQHELICIYCKDREFFKTTCEFQRPKENAGKMLAKAKQILSKEGGVTEKARKEYKDWVNQQDLTGGEKAYNQIDDNGDVFRPVSMAWPNKKKAPEDYFIPLIHPVTGKECPVPERGWRNPPATMQELLKSGLIIFGPDEKTQPTRKYRLNDNLFENIPSLLYYGGSDDALLADLKIPFDTPKPVQVAKRLIQSICKNDDILIDFFAGSCTAAHALMLLNAEDGANRRFIMVQLPEECDEKSEAKKLGYSVVSEIGKNRIRRAAKKIREEFSEILATRNTELDLGFRLLKVDTSNMAD | not soluble |
| MNEQVHARLKALARPMTGEEYLESLRDGREVYFMGERVKDVTTHPAFRNTARMFARWYDRLHELHKEDLERSKDPSGWKWTVPTESGNGWTHPFFVGPRSAEDLLKARDTIAELQRTVYGWGGRSPDYKAAFVGTLGPNAEFYAPYQENARRWYKETQEKLLYWNHAIVNPPVDRHKPVEEVGDVYMHVERETDAGIVVSGAKVVATGSAFTHVNFIAHYGPLPIKDKKFALIFVVPMDAKGVKLISRASYEFIAAKTGSPFDYPLSSRLDENDAILVFDNVLVPWENVFVYGDVEKVNAFFPLSGFVHRFPFQGCTRLAVKLDFIAGLTMKALDVTGASQFRGVQARLGEILTYRNLFWALTEAMARDPMPWVDGYVLPNLWAGLTYRVLAPEVYPKIKDIIERDLASALIYLPSHAKDFQNPQIRRYLDQYVRGNGVDAVTRVKIMKALWDAVGTEFGGRHELYERNYAGNHENIRIEVLGAMEAAGVNEALRAFVDKFLGEYDLEGWKVPDLINPTEA | soluble |
| MGSDKIHHHHHHMKITQIRNATLQLEFGGKTFLIDPMLAPKATYPGFPGTANDHLRNPLVELPLPMATILDVDAVIVTHTHLDHWDDAAIKAIPKTMPIFSQNAQDADLIRRAGFISVRVLGEQMEYDGITLIKTAGQHGSDETYANPQLAERLGEVCGIVFQHANEKSFYLAGDTVWNQHVIDVLTDYSPDVVALNIGNAFIPSFGSIIMGKEDVRRVHQLVPNAAIVATHMEAVNHCLLSRAELRDYLHEEKLQSIAHVPNDGESVQF | not soluble |
| IIYKETKPEEYNLRNPVVTQDYTVSMSGGNDRGTYYASLGYNDSPGAPITTEYTRYNFTFNGSYKIADWLKTTSNATFSRANYVWLNNDWGTEADYFGRVMSSPPTVRFEDEDGNSTLGPSPGDGNQTYVARSYDQDNERTKLTLMQSVEANLFKGLVLRASASWYYFHTVEENMRKDYETVPGQWDRTRSTSASYSRQFSQTYNAVLDYTTTFATSHNLNVMLGSEFYDQYNNGFSASGFGASTDDFKKLGLTDAGEGKRSIDSSHSRYRILSYFGRLNYDYEGKYLFSGVFRYDGYSSLLGKNRWGFFPGVSGGWVFTKEDFVKESLPFLYYGKLRASYGLNGNASGIGPYTLQGSYNSNKYHGNNGFLIGALPNPSLRWEKTASFDIGLNVGLLDGRLNLDIDYYNRLTSDKYADLTLPSTTGFSSIRNNNGKLRNRGIELQLSGKIMETRDFTWDASLNITYNKNKIIALPYNKEPRNRQEGQQVYTGRKIANPETGVFEDEKVWVGGFQEGMEYGVLVGYQAEGIYQSMDDIPGDLVVKSGNAQGKYQYGPDAWKRLSAAEQAKGVEIKPGDMKWKDVNGDGMIDQYDQVVIGNTTPRWFGGFNTTMSWKGLSLYARFDFALDYWVYDNQTPWLLGCMQGTYNTTKDVFNTWNESNPNAKYPRYVYGDQLGTANYNRTSTLFASKGNYLGVRELSLSYTLPQELSKKLYMQKLQFSITGQNLGYLTSARTVSPEISSGYPLPRTVILGVNVTF | not soluble |
| GPGSMSKQKKEVVINLDEVDEQTGYKSAELFVWLKFDETYLQKPEDDREADVDAWVDAFCEQMEEEGMNYDRNFVRSVCVLGIYAGARDEFQQRMGSGKAVYPNGDRYDGEFFEGKKHGTGRYCFVSRGKSECDRIVEKEMQKLGGAVPDEQFITNVAEKYKISRQIVSWIIEYGVYPCYHGDYVRGVRTGQGLMKNKDGTVYKGDFLANKRHGQGMFYYLNGDIFSGTWRNGLKHGYGTYHFAGGSEYRGSWVDGVFTQGQWIFPDGTYYEGLFNKKNRPCDDAASMHFPSIKMAQTGVFRRGVWAPSSALQVCEETPVDGMSWID | soluble |
| MHQVVCATTNPAKIQAILQAFHEIFGEGSCHIASVAVESGVPEQPFGSEETRAGARNRVANARRLLPEADFWVAIEAGIDGDSTFSWVVIENASQRGEARSATLPLPAVILEKVREGEALGPVMSRYTGIDEIGRKEGAIGVFTAGKLTRASVYHQAVILALSPFHNAVY | soluble |
| MISNRILQTTVDGLKAISRVDLCIVDADKNVAAKTFDNVSECLADAISFIDSPAESQAVNGFQFFKVEDEGNLEYIIMARGTSDDVYMVGKLAAFQIQNLLVAYKERFDKDNFIKNLLLDNLLRVDMYTRAEKLHIETDVKRVVYIIETKHEKDTSALETVRTLFANKTRDFITAVDEKSIILVKEVKGNESYDELDKTADVIIDMLNTEAMSAAHVAYGTIVNDIREVSRSYKEAKMALDVGKIFYSNKNVVAYNRLGIGRLIYQLPIPLCQMFIKEIFEGKAPDDFDDETLSTINKFFENSLNVSETSRQLYIHRNTLVYRLDKIQKITGLDLRVFDDAITFKIALMVVKYMKYMESKDTF | not soluble |
| MFVRTAVVLLLVASTAYTFVAPPSQATLACITCVATVKGVEAKMLHEGGNVAKHDVDAICLKEVPTHSAEHLCEEYGEHEVDVMVTLIKQDVPPKMICQELQKC | not soluble |
| IRVNTNKGGGVWESGAANSQSTSWGSGNGANSGGSRRGWGTPAQNTGTNLPSVEWNKLPSNQHSNDSANGNGKTFTNGWKSTEEEDQGSATSQTNEQSSVWAKTGGTVESDGSTESTGRLEEKGTGESQSRDRRKIDQHTLLQSIVNRTDLDPRVLSNSGWGQTPIKQNTAWDTETSPRGERKTDNGTEAWGSSATQTFNSGACIDKTSPNGNDTSSVSGWGDPKPALRWGDSKGSNCQGGWEDDSAATGMVKSNQWGNCKEEKAAWNDSQKNKQGWGDGQKSSQGWSVSASDNWGETSRNNHWGEANKKSSSGGSDSDRSVSGWNELGKTSSFTWGNNINPNNSSGWDESSKPTPSQGWGDPPKSNQSLGWGDSSKPVSSPDWNKQQDIVGSWGIPPATGKPPGTGWLGGPIPAPAKEEEPTGWEEPSPESIRRKMEIDDGTSAWGDPSKYNYKNVNMWNKNVPNGNSRSDQQAQVHQLLTPASAISNKEASSGSGWGEPWGEPSTPATTVDNGTSAWGKPIDSGPSWGEPIAAASSTSTWGSSSVGPQALSKSGPKSMQDGWCGDDMPLPGNRPTGWEEEEDVEIGMWNSNSSQELNSSLNWPPYTKKMSSKGLSGKKRRRERGMMKGGNKQEEAWINPFVKQFSNISFSRDSPEENVQSNKMDLSGGMLQDKRMEIDKHSLNIGDYNRTVGKGPGSRPQISKESSMERNPYFDKDGIVADESQNMQFMSSQSMKLPPSNSALPNQALGSIAGLGMQNLNSVRQNGNPSMFGVGNTAAQPRGMQQPPAQPLSSSQPNLRAQVPPPLLSPQVPVSLLKYAPNNGGLNPLFGPQQVAMLNQLSQLNQLSQISQLQRLLAQQQRAQSQRSVPSGNRPQQDQQGRPLSVQQQMMQQSRQLDPNLLVKQQTPPSQQQPLHQPAMKSFLDNVMPHTTPELQKGPSPINAFSNFPIGLNSNLNVNMDMNSIKEPQSRLRKWTTVDSISVNTSLDQNSSKHGAISSGFRLEESPFVPYDFMNSSTSPASPPGSIGDGWPRAKSPNGSSSVNWPPEFRPGEPWKGYPNIDPETDPYVTPGSVINNLSINTVREVDHLRDRNSGSSSSLNTTLPSTSAWSSIRASNYNVPLSSTAQSTSARNSDSKLTWSPGSVTNTSLAHELWKVPLPPKNITAPSRPPPGLTGQKPPLSTWDNSPLRIGGGWGNSDARYTPGSSWGESSSGRITNWLVLKNLTPQIDGSTLRTLCMQHGPLITFHLNLPHGNALVRYSSKEEVVKAQKSLHMCVLGNTTILAEFASEEEISRFFAQSQSLTPSPGWQSLGSSQSRLGSLDCSHSFSSRTDLNHWNGAGLSGTNCGDLHGTSLWGTPHYSTSLWGPPSSSDPRGISSPSPINAFLSVDHLGGGGESM | soluble |
